Measurements published in publication PMC7946940.

Tests used:
[1] = molecular target: Rab5a(1–212)-Q79L-C19S-C63S (human) (UniProt P20339)
[2] = molecular target: Rab1a(1–204)-Q70L-C26S-C126S (human) (UniProt P62820)
Rab1a(1–204)-Q70L-C26S-C126S (human), sequence (P62820 1-204 C26S/Q70L/C126S): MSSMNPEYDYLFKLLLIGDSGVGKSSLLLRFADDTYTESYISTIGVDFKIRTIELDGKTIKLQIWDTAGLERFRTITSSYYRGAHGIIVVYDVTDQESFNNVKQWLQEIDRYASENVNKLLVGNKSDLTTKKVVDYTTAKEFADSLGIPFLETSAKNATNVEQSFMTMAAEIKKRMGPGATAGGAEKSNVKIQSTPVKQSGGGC

human VPS34 complex I (VPS34/VPS15/Beclin 1/ATG14L), sequence (Q8NEB9 whole entry): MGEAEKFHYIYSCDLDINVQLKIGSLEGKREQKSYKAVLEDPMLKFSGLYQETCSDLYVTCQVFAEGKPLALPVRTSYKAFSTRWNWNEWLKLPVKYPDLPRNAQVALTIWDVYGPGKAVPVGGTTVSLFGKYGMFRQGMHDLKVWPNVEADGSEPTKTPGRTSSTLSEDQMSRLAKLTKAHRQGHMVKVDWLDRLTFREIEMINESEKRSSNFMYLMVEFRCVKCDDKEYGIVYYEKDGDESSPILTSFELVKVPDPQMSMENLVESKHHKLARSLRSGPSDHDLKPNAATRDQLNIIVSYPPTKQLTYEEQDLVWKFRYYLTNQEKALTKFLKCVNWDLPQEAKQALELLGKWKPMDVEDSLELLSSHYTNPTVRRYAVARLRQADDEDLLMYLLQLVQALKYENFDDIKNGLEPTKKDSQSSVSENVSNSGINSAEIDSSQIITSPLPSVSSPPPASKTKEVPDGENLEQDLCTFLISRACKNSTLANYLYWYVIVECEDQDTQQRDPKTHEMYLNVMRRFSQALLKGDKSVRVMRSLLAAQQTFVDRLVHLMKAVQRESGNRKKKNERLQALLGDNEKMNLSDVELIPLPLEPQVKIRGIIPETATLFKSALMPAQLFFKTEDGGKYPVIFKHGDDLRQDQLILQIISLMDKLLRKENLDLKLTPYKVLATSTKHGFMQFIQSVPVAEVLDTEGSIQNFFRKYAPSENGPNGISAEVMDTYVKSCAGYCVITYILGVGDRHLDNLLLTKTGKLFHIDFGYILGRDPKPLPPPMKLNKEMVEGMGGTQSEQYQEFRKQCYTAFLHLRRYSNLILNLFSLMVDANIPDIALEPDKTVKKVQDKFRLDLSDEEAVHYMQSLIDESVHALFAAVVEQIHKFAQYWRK
human VPS34 complex I (VPS34/VPS15/Beclin 1/ATG14L), sequence (Q99570 whole entry): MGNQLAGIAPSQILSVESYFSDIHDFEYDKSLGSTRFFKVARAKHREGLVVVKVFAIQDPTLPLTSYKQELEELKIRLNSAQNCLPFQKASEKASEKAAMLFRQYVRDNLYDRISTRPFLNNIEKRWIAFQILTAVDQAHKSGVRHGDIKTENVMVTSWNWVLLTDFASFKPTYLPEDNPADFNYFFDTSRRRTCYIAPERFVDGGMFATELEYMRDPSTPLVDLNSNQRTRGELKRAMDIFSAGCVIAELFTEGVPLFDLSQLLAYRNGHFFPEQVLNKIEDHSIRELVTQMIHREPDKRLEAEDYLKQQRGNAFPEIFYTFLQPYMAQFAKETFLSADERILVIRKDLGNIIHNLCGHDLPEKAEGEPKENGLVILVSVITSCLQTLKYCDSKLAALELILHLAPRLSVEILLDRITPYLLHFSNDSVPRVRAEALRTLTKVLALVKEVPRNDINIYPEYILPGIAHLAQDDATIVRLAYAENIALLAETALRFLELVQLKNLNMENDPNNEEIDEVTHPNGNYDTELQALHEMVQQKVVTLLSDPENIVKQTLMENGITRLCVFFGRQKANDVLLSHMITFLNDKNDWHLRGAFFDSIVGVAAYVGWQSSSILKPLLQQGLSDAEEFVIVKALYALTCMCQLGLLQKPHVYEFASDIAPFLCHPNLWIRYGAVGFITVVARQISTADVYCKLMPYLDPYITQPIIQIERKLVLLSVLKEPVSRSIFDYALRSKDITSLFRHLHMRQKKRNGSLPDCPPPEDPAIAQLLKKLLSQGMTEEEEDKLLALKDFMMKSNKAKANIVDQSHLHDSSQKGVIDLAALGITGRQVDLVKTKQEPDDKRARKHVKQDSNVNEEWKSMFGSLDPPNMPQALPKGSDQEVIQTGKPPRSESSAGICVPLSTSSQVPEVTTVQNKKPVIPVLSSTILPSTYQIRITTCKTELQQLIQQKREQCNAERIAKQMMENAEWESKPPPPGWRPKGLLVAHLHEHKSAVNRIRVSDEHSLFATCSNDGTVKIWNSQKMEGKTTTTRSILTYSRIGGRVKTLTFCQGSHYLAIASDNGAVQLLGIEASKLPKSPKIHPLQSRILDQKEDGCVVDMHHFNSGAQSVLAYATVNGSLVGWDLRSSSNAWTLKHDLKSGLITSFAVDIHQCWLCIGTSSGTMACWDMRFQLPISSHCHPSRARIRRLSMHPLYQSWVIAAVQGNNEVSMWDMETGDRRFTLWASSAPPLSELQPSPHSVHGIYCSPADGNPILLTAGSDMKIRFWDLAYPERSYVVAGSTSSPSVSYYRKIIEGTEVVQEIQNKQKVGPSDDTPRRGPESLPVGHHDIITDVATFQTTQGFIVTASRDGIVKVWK
human VPS34 complex I (VPS34/VPS15/Beclin 1/ATG14L), sequence (Q14457 whole entry): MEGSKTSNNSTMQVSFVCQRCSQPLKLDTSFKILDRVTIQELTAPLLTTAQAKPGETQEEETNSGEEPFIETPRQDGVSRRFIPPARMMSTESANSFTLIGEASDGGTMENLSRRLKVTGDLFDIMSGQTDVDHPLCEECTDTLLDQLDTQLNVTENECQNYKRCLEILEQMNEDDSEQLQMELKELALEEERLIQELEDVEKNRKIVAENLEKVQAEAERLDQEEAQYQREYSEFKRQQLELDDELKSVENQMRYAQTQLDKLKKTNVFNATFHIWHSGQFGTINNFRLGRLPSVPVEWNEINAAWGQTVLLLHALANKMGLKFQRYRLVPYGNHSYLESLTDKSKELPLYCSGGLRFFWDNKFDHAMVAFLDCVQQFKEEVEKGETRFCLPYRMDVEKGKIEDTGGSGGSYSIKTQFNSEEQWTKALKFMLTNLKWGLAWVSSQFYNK
human VPS34 complex I (VPS34/VPS15/Beclin 1/ATG14L), sequence (Q6ZNE5 whole entry): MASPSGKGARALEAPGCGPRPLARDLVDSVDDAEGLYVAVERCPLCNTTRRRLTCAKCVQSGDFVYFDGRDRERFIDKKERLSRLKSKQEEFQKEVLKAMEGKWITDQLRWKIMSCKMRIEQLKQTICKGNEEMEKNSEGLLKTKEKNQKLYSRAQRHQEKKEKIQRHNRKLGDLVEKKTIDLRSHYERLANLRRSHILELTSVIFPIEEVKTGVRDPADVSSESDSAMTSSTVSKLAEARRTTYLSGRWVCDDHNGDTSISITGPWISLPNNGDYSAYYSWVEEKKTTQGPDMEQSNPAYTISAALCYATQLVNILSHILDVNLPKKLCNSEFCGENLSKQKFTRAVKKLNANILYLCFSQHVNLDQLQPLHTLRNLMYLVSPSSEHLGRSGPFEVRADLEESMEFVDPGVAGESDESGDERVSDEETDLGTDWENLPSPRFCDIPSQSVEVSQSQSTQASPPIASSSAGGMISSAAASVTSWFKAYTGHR
Rab5a(1–212)-Q79L-C19S-C63S (human), sequence (P20339 1-212 C19S/C63S/Q79L): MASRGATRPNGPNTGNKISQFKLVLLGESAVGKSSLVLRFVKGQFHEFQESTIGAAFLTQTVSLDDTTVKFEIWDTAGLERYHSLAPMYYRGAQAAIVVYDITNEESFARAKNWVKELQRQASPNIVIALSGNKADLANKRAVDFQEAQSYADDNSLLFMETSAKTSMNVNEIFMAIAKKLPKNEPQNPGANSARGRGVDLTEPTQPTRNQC

| Substance | GUV-based lipid kinase activity, activation of complex II REIE > AAAA by Rab5a–GTP against wild-type complex II [1] | GUV-based lipid kinase activity of complex I, fold activation by Rab1a–GDP on the GUVs [2] | GUV-based lipid kinase activity of complex I, fold activation by Rab1a–GTP on the GUVs [2] |
| --- | --- | --- | --- |
| complex II REIE > AAAA (VPS34 199-REIE-202 to alanine/VPS15/Beclin 1/UVRAG) (from UniProt Q8NEB9 1-887; Q99570 1-1358; Q14457 1-450; Q9P2Y5 1-699) | 4 fold |  |  |
| human VPS34 complex I (VPS34/VPS15/Beclin 1/ATG14L) (from UniProt Q8NEB9 1-887; Q99570 1-1358; Q14457 1-450; Q6ZNE5 1-492) |  | 3 fold | 11 fold |
